# From article PMC9909445 (Nature nanotechnology, 2022)
# B1: NE-binding peptide (NEBP) (peptide)
# peptide: CGEAIPMSIPPEVK
# Tests used:
# [1] = biological target: T1, murine neutrophil elastase (mNE) (mouse, UniProt Q3UP87 27-265); test: SPR
# T1 sequence (looked up): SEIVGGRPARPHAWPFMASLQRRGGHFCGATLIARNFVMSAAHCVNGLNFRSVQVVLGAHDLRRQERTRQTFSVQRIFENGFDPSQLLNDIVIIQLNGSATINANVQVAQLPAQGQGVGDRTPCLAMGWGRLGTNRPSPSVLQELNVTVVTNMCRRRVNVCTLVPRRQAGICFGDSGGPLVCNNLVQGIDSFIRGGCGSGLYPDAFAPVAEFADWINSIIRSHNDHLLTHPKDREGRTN
# [2] = biological target: T2, human neutrophil elastase (hNE) (human, UniProt P08246 30-267); test: MST
# T2 sequence (looked up): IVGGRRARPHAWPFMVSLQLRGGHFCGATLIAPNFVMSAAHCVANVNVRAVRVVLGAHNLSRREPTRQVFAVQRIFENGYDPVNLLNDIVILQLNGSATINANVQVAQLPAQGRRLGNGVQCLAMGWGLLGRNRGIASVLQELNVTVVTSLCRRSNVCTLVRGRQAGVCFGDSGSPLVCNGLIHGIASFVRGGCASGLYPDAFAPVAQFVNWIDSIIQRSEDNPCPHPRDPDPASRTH
binder,measurement,setting,value
B1,Kd,[1],1.6 nM
same,koff,[1],8.31e-06 s⁻¹
same,kon,[1],5200 M⁻¹ s⁻¹
same,Kd,[2],2080 ± 1350 nM
